Data taken from the supplement of paper PMC12764529.
± gives the half width of the 95% confidence interval.

Assays:
[1] = folding stability dG unfold (combined trypsin and chymotrypsin); higher = more stable
In short: (§1)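 Designed mini-proteins (under 80 residues, no cysteine) in a PA-tagged cDNA display construct were digested with trypsin and chymotrypsin. Each protease was used at 11 concentrations (threefold dilutions) plus a no-protease condition, followed by sequencing. K50 was inferred by Bayesian fitting of sequencing counts, and unfolding free energy was derived against a sequence-predicted unfolded-state K50 and a shared folded-state K50, per protease or combined. Only designs with AlphaFold2 dimer inter-PAE above 15 were kept.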

[2] = folding stability dG unfold from trypsin proteolysis; higher = more stable
In short: as §1

[3] = folding stability dG unfold from chymotrypsin proteolysis; higher = more stable
In short: as §1

| Sequence | folding stability dG unfold [1] [kJ/mol] | folding stability dG unfold [2] [kJ/mol] | folding stability dG unfold [3] [kJ/mol] |
| --- | --- | --- | --- |
| SAGGKAKIVEIKYNEETGTVTIKIKNEDGEEYEISIKLPPGAKIEIDEDGNITIKDIPAEQIEVRKVSAGGS [r16_515_TrROS_Hall] | 6.09 ± 0.502 | 3.74 ± 0.126 | 7.03 ± 0.234 |
| SAGGKDIKVTVEKVGDELYILVEASKEEVEALLKAGKKEITIEINGKKVKVKAVKLPDGTVLFRVRLESAGG [r13_171_TrROS_Hall] | 16.6 ± 0.272 | 13.7 ± 0.268 | 17.7 ± 0.218 |
| SAGGKEEKVVEIEIKKEKLKKSKDGKVYSAEEIAKKLKKELPEENVEVEIVSYDKEKGVVKIKIKVKSAGGS [r16_284_TrROS_Hall] | 7.13 ± 1.51 | 6.3 ± 0.502 | 7.27 ± 0.753 |
| SAGGKEFIEKLGNNATIEIDTPNGGKVKINLKIEKVKPGKYVIKGEVTVYNPNTNKPVKFPYTLTIESAGGS [r8_473_TrMRF] | 13.1 ± 0.753 | 9.99 ± 0.837 | 15.7 ± 0.318 |
| SAGGKEIYKVNKKDFKKILDYLKKKKNAKITIIIKNKPIEIPIKDLEENYKKIKGKPNEPFYLEIEYSAGGS [r16_377_TrMRF] | 8.97 ± 0.322 | 7.33 ± 0.364 | 9.53 ± 0.142 |
| SAGGKEKIILIPAKDKEKVLELLKALADEGKTVRIINLKTGKVEEVTVDELLALAEKTNEPILIEVESAGGS [r16_263_TrROS_Hall] | 14 ± 0.879 | 15.4 ± 0.753 | 12.5 ± 0.46 |
| SAGGKEKYKVIEIKVKPEDVTAEELQAELEKKGYEIYVDGKKIKPGESVEDLLAKNPNATLTIVVKESAGGS [r8_38_TrROS_Hall] | 7.16 ± 0.837 | 3.87 ± 0.711 | 8.1 ± 0.46 |
| SAGGKEVKIKIETKTLPNGVKVVKMTVELPDGKTVEMVMVENKKTGKMVMFEVKLDKNGKIVEIKAFPSAGG [r13_323_TrROS_Hall] | 13.9 ± 1.72 | 11.1 ± 0.669 | 14.4 ± 0.669 |
| SAGGKEVKITIEYDEETKEVRVTIEKDGKEITVTMTAEELKKLLEELEKLPPVVVKDKDGKEKVVLLSAGGS [r8_332_TrROS_Hall] | 2.91 ± 0.544 | 4.77 ± 0.155 | -1.98 ± 1.09 |
| SAGGKEVKVIRITMSRDQLRDLIEKLFGKPLSLEEILKKLPPGAKVEIRVEENENGEVTVEIVIVKKPSAGG [r13_869_TrROS_Hall] | 16.7 ± 1.09 | 13.4 ± 0.962 | 17.3 ± 0.46 |
| SAGGKEVYKVEIEVRLVKVPPGATVTLEEENGELTLTVTAPPGEEVLVIRIKVEKVKLPKPEKKKKKKSAGG [r13_804_TrROS_Hall] | 11.7 ± 1.88 | 9.28 ± 1.13 | 14.4 ± 0.753 |
| SAGGKIEEILKKLNLKPGEKAKIKDIKIEVKTVTVTEKKYKNGKLVEEKEKTVTVVKIEIKIELEKPKSAGG [r13_482_TrROS_Hall] | 13.5 ± 1.09 | 10.9 ± 0.753 | 16.6 ± 0.753 |
| SAGGKIEELAKEIAQEHNIKSVDVQTTGGYPKVNVRFRNPKEGRMYRIKIHVPPDGNIKISIEPQELSAGGS [r16_433_TrROS] | 8.02 ± 1.09 | 7.82 ± 0.142 | 8.7 ± 0.544 |
| SAGGKIEIHPDTLVVRIEVENKDGSTEEITLELKGLTEEELEDLLKELAAQLPDPDVKVKIVEIRRLPSAGG [r13_29_TrROS_Hall] | 10.2 ± 0.544 | 11 ± 0.544 | 10.4 ± 0.502 |
| SAGGKIIEAIKELLKEGKKLSKEEILKKLKEALRKKAEEEGKPIEEIEITSIHFDKETNEVHIEIKPSAGGS [r16_365_TrROS_Hall] | 10.8 ± 0.372 | 10.4 ± 0.502 | 11 ± 0.418 |
| SAGGKIKLSPEALKALEEAIKKGDKNKTIFIELPDGSRIEVLPDGRIKVINKNGEEYELSEIKKIYPSAGGS [r16_664_TrROS_Hall] | 10.8 ± 0.92 | 12.5 ± 0.837 | 9.67 ± 0.502 |
| SAGGKILVPLEVLKEIEEAGLVDEVVENPDGPASLTVTSSKPAKLFGKPVIGFVRRGPDGKPVVEIIPSAGG [r13_163_TrMRF] | 0.000509 ± 0.414 | -0.9 ± 0.381 | 0.211 ± 0.544 |
| SAGGKIPISPEALKALDEALKNGDKGDTIPIQTPDGHYIVITPNGRMRFHNGNEREFPIGKIKAIIWSAGGS [r16_664_TrROS] | 0.652 ± 0.502 | -0.624 ± 0.586 | 1.01 ± 0.837 |
| SAGGKIRIDVQYNKNEGYITIRIRFNGNTREIPIPSPKQSPEDVREEAEEIAKYLQEEYNIKEVEIWSAGGS [r16_249_TrROS] | 9.88 ± 0.669 | 8.39 ± 0.285 | 9.81 ± 0.46 |
| SAGGKITITVEYNKETNTVRIKITTEDGKEKELEINLENLTEEELKKLAEEIAKKLNPEKIKKVEIYPSAGG [r13_267_TrROS_Hall] | 9.74 ± 0.544 | 7.09 ± 0.46 | 11.2 ± 0.502 |
| SAGGKKEKKLTLLFSDPNGKLSLVIEVYKKKDGSYWAVFYNPETGKKEEYKFKSLEELEEAVKELLKKSAGG [r13_857_TrMRF] | 17.9 ± 0.322 | 11.7 ± 0.201 | 19.16 ± 0.188 |
| SAGGKKIEIYKLKDALIIKIPEKGLLILLGNDTAIIFKVKSIKNNGKPKIISSKIISLEEILDLIKSSAGGS [r8_174_TrMRF] | 13.9 ± 0.544 | 11.7 ± 0.502 | 15.7 ± 0.197 |
| SAGGKKIIIVIGSPEEVERLKELFPDEEVITLPREALENPEVLKELIKELEEKGIEVEIIIPPGVKPSAGGS [r8_376_TrROS_Hall] | 15.6 ± 1.84 | 16 ± 1.55 | 8.1 ± 1.09 |
| SAGGKKITITLTVKTPEDALAAARELAEALGLKIKKIKKVEVTYDEENNLVTVKVEIEIEPLPEEELSAGGS [r16_155_TrROS_Hall] | 18.4 ± 0.795 | 19.6 ± 1.38 | 17.9 ± 0.418 |
| SAGGKKITVTVTRERTEDGTLRVTVTLRDEETGRTLTLTLTVPRENEEEVEEAAKRLAEELAADPELESAGG [r13_968_TrROS_Hall] | 18.5 ± 0.711 | 11.8 ± 0.268 | 19.8 ± 0.502 |
| SAGGKKIVIVAPPGMSPEELAELLKKLFPGLEVEVREVSAEELKKLKPGDEVLVIEVDGRLYAVKIKPSAGG [r13_649_TrROS_Hall] | 13.4 ± 0.502 | 8.56 ± 0.46 | 15.4 ± 0.586 |
| SAGGKKKITIEVEKKEDGKEVKVKIKVDGKEIEITFPENMSKEELLEAAKKLAEENNIEIEEVEIYPSAGGS [r16_753_TrROS_Hall] | 6.42 ± 0.628 | 5.2 ± 0.418 | 6.43 ± 0.381 |
| SAGGKKKKIIIVLSKEEAEKKAEELKKELEKKGIEVEEVKVVEGMSEEEVKELAEKEKKPVIVIEPKSAGGS [r16_94_TrROS_Hall] | 3.4 ± 0.586 | -0.663 ± 0.322 | 5.33 ± 0.314 |
| SAGGKKKKKKKIEKKVKTVTIKIKAKTKEEAKKALEELLKKKGLEVEIVKIEYDPETKEITVTVKVKPSAGG [r13_567_TrROS_Hall] | 8.97 ± 0.356 | 8.04 ± 0.184 | 9.69 ± 0.502 |
| SAGGKKKKLKIKIVIVAKSKEEAEKLAKELAEKLKELGIKEVEIEVEVIELPPPPPPPKPDSPEYKKKSAGG [r13_6_TrROS_Hall] | 1.56 ± 1.76 | -1.89 ± 1.42 | -0.548 ± 1.51 |
